Source: the supplement of paper PMC10126150
± gives the standard deviation of the averaged measurements.

The sequences below were run on ATP (assay: switch fluorescence ratio, 500 uM ATP over buffer (Cy3 cluster intensity, sum of 5 cycles each) (fold (ratio)); higher = stronger signal-on switching upon ATP binding; sequences stand for … in TCGTCGGCAGCGTCAGATGTGTATAAGAGACAGTTTTTTTTTTTTTTTTTTTTTTTTT…TC). Conditions: aptamer strand: ATP DNA aptamer (quencher-CACCTGGGGGAGTATTGCGGAGGAAGG + anchor), 100 nM annealed; ATP concentration: 500 uM.
Procedure, shortened: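 The fluorescence ratio divides summed target-cycle Cy3 intensity by summed buffer-cycle Cy3 intensity for each cluster and is averaged per switch-domain sequence. Cy3-labelled switching-strand clusters on a modified Illumina MiSeq flow-cell were annealed to 100 nM quencher-labelled ATP aptamer, then imaged in selection buffer and again after 15 min with 500 uM ATP at 22 °C. Five such cycles were run, with NaOH stripping and re-annealing between them, and clusters outside 100-1000 RFU were excluded.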
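Also: ATP exposure 15 min at 22 °C before imaging.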

Sequence	switch fluorescence ratio
TGGGACACAG	1.004 ± 0.007
TGGGACATGT	1.02 ± 0.019
TGGGACCGCG	1.03 ± 0.084
TGGGACGGTA	1 ± 0.022
TGGGAGACAA	0.9815 ± 0.001
TGGGAGCAGC	1.02 ± 0.038
TGGGAGCCTG	0.987 ± 0.015
TGGGAGGGAT	0.989 ± 0.021
TGGGAGGGGC	1.01 ± 0.021
TGGGAGTATT	0.9815 ± 0.0069
TGGGAGTCGC	0.97 ± 0.027
TGGGATAAAA	1.01 ± 0.044
TGGGATAACT	0.99 ± 0.038
TGGGATAGTT	1.024 ± 0.0069
TGGGATCGAG	0.9719 ± 0.0032
TGGGATCGTT	0.98 ± 0.015
TGGGATGCGT	0.988 ± 0.015
TGGGATGGGA	1 ± 0.024
TGGGATGTTT	0.982 ± 0.026
TGGGATTAGA	1.021 ± 0.008
TGGGATTATC	1.02 ± 0.027
TGGGATTCCC	1.01 ± 0.017
TGGGATTGAA	0.9806 ± 0.0079
TGGGCAGAAG	0.9744 ± 0.0053
TGGGCAGGAT	1.01 ± 0.041
TGGGCATTGG	1.01 ± 0.018

Sequence	switch fluorescence ratio
TGGGCGCAGT	0.986 ± 0.012
TGGGCGTTTA	1.04 ± 0.026
TGGGCTCTTT	1 ± 0.019
TGGGCTGCGG	0.974 ± 0.04
TGGGCTTATC	1.012 ± 0.0097
TGGGGAAACT	1.15 ± 0.23
TGGGGAACAA	1 ± 0.055
TGGGGAATAT	1.18 ± 0.38
TGGGGAATGG	1 ± 0.05
TGGGGACGTT	0.971 ± 0.056
TGGGGAGCAA	1.73 ± 0.074
TGGGGAGTGG	1.02 ± 0.065
TGGGGAGTTA	0.992 ± 0.021
TGGGGATCGT	0.982 ± 0.026
TGGGGATCTA	1.002 ± 0.006
TGGGGATCTG	0.985 ± 0.03
TGGGGATCTT	0.972 ± 0.057
TGGGGATGAT	1 ± 0.022
TGGGGATTAC	0.983 ± 0.012
TGGGGATTCC	1.01 ± 0.016
TGGGGATTGA	1 ± 0.03
TGGGGATTTC	1.1 ± 0.16
TGGGGATTTG	0.99 ± 0.032
TGGGGCCCGG	0.984 ± 0.019
TGGGGCCTGG	1.1 ± 0.23
TGGGGCCTGT	0.978 ± 0.023

Sequence	switch fluorescence ratio
TGGGGCGGGG	0.983 ± 0.018
TGGGGCGGTG	1.001 ± 0.0085
TGGGGCGTAT	1.04 ± 0.039
TGGGGCTACA	0.983 ± 0.056
TGGGGCTACC	1.06 ± 0.093
TGGGGCTCAG	0.986 ± 0.027
TGGGGCTTCG	0.92 ± 0.077
TGGGGCTTGA	0.9684 ± 0.005
TGGGGG	1 ± 0.033
TGGGGGAAAG	0.993 ± 0.026
TGGGGGAACA	0.989 ± 0.018
TGGGGGAAGG	1.03 ± 0.061
TGGGGGACCT	1.09 ± 0.1
TGGGGGACTA	0.967 ± 0.033
TGGGGGATTG	0.987 ± 0.031
TGGGGGCACA	1.0343 ± 0.00026
TGGGGGCCTG	0.99 ± 0.033
TGGGGGCCTT	1.02 ± 0.053
TGGGGGCGGC	1.046 ± 0.0061
TGGGGGGCCA	1 ± 0.027
TGGGGGGCGG	1.02 ± 0.03
TGGGGGGGAT	0.993 ± 0.026
TGGGGGGGGA	1.02 ± 0.036
TGGGGGGGTC	0.988 ± 0.048
TGGGGGGTCA	0.993 ± 0.02
TGGGGGGTGC	1.13 ± 0.4

Sequence	switch fluorescence ratio
TGGGGGTATA	1.03 ± 0.06
TGGGGGTCAT	1.05 ± 0.061
TGGGGGTCCC	0.991 ± 0.017
TGGGGGTCTA	0.971 ± 0.031
TGGGGGTT	0.997 ± 0.032
TGGGGGTTAC	1.08 ± 0.13
TGGGGGTTCG	0.99 ± 0.035
TGGGGGTTG	1 ± 0.032
TGGGGGTTTG	0.993 ± 0.021
TGGGGTATAT	0.996 ± 0.015
TGGGGTGCGG	0.975 ± 0.026
TGGGGTGCTG	1.05 ± 0.016
TGGGGTGGGA	0.991 ± 0.029
TGGGGTGGGG	1.05 ± 0.09
TGGGGTGTCT	0.993 ± 0.039
TGGGGTTACT	1.01 ± 0.015
TGGGGTTCAT	0.985 ± 0.025
TGGGGTTCGG	1 ± 0.079
TGGGGTTCTA	0.992 ± 0.026
TGGGGTTGCC	0.96 ± 0.026
TGGGGTTGGC	1.17 ± 0.34
TGGGTAAACG	1.023 ± 0.0035
TGGGTAAGGA	1 ± 0.026
TGGGTAATGT	1.01 ± 0.023
TGGGTAATTT	1.03 ± 0.055
TGGGTACAGC	1.02 ± 0.04

Sequence	switch fluorescence ratio
TGGGTAGGTC	1.014 ± 0.0014
TGGGTAGTAA	0.993 ± 0.016
TGGGTATCGG	0.994 ± 0.021
TGGGTATCGT	0.977 ± 0.029
TGGGTATTAC	1.14 ± 0.26
TGGGTCAATG	0.9822 ± 0.0078
TGGGTCCAAA	1.006 ± 0.0076
TGGGTCGCCG	0.964 ± 0.012
TGGGTCTAAG	0.9669 ± 0.0093
TGGGTCTAGA	0.975 ± 0.023
TGGGTCTTGA	1.001 ± 0.0062
TGGGTGAAAG	1.02 ± 0.02
TGGGTGAGGA	1.04 ± 0.054
TGGGTGATTA	0.9846 ± 0.005
TGGGTGCGTC	0.988 ± 0.014
TGGGTGGAAG	1.042 ± 0.01
TGGGTGGATC	1.02 ± 0.056
TGGGTGTATC	1.004 ± 0.0022
TGGGTGTGG	1.015 ± 0.0075
TGGGTGTTGT	1.01 ± 0.034
TGGGTTATTA	1 ± 0.018
TGGGTTCAGC	1 ± 0.011
TGGGTTCTGT	0.974 ± 0.0099
TGGGTTGCGT	1.01 ± 0.017
TGGGTTGGAG	0.9949 ± 0.0067
TGGGTTTATG	1 ± 0.03

Sequence	switch fluorescence ratio
TGGGTTTGGA	1.03 ± 0.049
TGGGTTTTGT	1.01 ± 0.029
TGGTAAACGC	1.03 ± 0.05
TGGTAAAGGG	0.991 ± 0.034
TGGTAATGGA	0.958 ± 0.046
TGGTAATGGT	1.03 ± 0.074
TGGTAATTTT	0.998 ± 0.017
TGGTAGAAGT	0.988 ± 0.022
TGGTAGATGG	1 ± 0.022
TGGTAGGAGG	1.002 ± 0.0056
TGGTAGGGGT	1 ± 0.014
TGGTAGGTGA	0.997 ± 0.025
TGGTATAGGC	1.04 ± 0.027
TGGTATCTTA	1.026 ± 0.0098
TGGTATGGTA	0.9969 ± 0.0099
TGGTCCACTG	1.009 ± 0.0057
TGGTCGGTAG	0.9855 ± 0.0023
TGGTCTAGGA	1.01 ± 0.011
TGGTCTTTTC	0.986 ± 0.02
TGGTGAAACC	1.013 ± 0.0035
TGGTGAAAGC	0.991 ± 0.022
TGGTGATGCA	1.08 ± 0.11
TGGTGATGCG	0.998 ± 0.064
